Drawing on article PMC8930771, “Structural basis of phosphatidylinositol 3-kinase C2α function” (Nature Structural & Molecular Biology, 2022), this text covers percent of parent for 1 variant.

Sequences and labels used below:
B1: PI3KC2α^ΔN+ΔPX−C2 WT (mouse PI3KC2α amino acids 377–1,400) [mouse] / GST-distal C2 (PI3KC2α amino acids 1,561–1,686) [mouse] (parent complex)
chain 1: VQNDEVAAFCQSIMKLKTKFPYTDHCTNPGYLLSPVTVQRNMCGENASVKVSIEIEGLQLPVTFTCDVSSTVEIIIMQALCWVHDDLNQVDVGSYILKVCGQEEVLQNNHCLGSHEHIQNCRKWDTEIKLQLLTLSAMCQNLARTAEDDEAPVDLNKYLYQIEKPYKEVMTRHPVEELLDSYHYQVELALQTENQHRAVDQVIKAVRKICSALDGVETPSVTEAVKKLKRAVNLPRNKSADVTSLSGSDTRKNSTKGSLNPENPVQVSMDHLTTAIYDLLRLHANSSRCSTACPRGSRNIKEAWTATEQLQFTVYAAHGISSNWVSNYEKYYLICSLSHNGKDLFKPIQSKKVGTYKNFFYLIKWDELIIFPIQISQLPLESVLHLTLFGVLNQSSGSSPDSNKQRKGPEALGKVSLTLFDFKRFLTCGTKLLYLWTSSHTNSIPGAIPKKSYVMERIVLQVDFPSPAFDIIYTSPQIDRNIIQQDKLETLESDIKGKLLDIIHRDSSFGLSKEDKVFLWENRYYCLKHPNCLPKILASAPNWKWANLAKTYSLLHQWPPLCPLAALELLDAKFADQEVRSLAVSWMEAISDDELADLLPQFVQALKYEIYLNSSLVRFLLSRALGNIQIAHSLYWLLKDALHDTHFGSRYEHVLGALLSVGGKGLREELSKQMKLVQLLGGVAEKVRQASGSTRQVVLQKSMERVQSFFLRNKCRLPLKPSLVAKELNIKSCSFFSSNAMPLKVTMVNADPLGEEINVMFKVGEDLRQDMLALQMIKIMDKIWLKEGLDLRMVIFRCLSTGRDRGMVELVPASDTLRKIQVEYGVTGSFKDKPLAEWLRKYNPSEEEYEKASENFIYSCAGCCVATYVLGICDRHNDNIMLRSTGHMFHIDFGKFLGHAQMFGSFKRDRAPFVLTSDMAYVINGGEKPTIRFQLFVDLCCQAYNLIRKQTNLFLNLLSLMIPSGLPELTSIQDLKYVRDALQPQTTDAEATIFFTRLIESSLGSIATKFNFFIHNLAQLRFSG
chain 2: GAVKLSVSYRNGTLFIMVMHIKDLVTEDGADPNPYVKTYLLPDTHKTSKRKTKISRKTRNPTFNEMLVYSGYSKETLRQRELQLSVLSAESLRENFFLGGITLPLKDFNLSKETVKWYQLTAATYL

The variants in this experiment derive from B1. Kind of experiment: GST pull-down, SDS-PAGE with Coomassie Blue staining, quantified with ImageJ; n = 3; binding of WT set to 100%; parent: 100; read off a plot.
Turning to chain 1 K50A, chain 1 W82A, chain 1 D85A, chain 1 D86A, the percent of parent was ~42%.
